Measured values taken from patent US20200317768A1 (published 2020).

Assays:
[1] = target: T1, cynomolgus monkey FcγRIIIaS extracellular domain, C-terminal His-tag (cynomolgus monkey, UniProt Q8SPW2 21-206 at identity 1.00)); test: SPR (BIACORE) 25C, antibody captured, FcgR as analyte
T1 construct: also called cyno FcγRIIIaS; FcgRIIIaS
T1 chain: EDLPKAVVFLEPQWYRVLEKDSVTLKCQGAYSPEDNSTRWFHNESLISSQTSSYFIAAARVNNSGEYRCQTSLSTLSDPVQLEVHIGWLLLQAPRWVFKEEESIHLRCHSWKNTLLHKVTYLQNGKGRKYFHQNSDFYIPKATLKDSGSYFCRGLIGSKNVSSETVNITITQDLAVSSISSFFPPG
Method: (§1) The kinetic analysis of interactions between these antibodies and FcγR was carried out using BIACORE® T200 or BIACORE® 4000 (GE Healthcare). HBS-EP+ (GE Healthcare) was used as the running buffer, and the measurement temperature was set to 25° C. A chip produced by immobilizing Protein A. Protein A/G or mouse anti-human IgG kappa light chain (BD Biosciences) onto a Series S Sensor Chip CM4 or CM5 (GE Healthcare) by the amine-coupling method was used. […] After the measurement, the antibody captured on the chip was washed off by allowing reaction with 10 mM glycine-HCl, pH1.5 and 25 mM NaOH so that the chip was regenerated and used repeatedly. The sensorgrams obtained as measurement results were analyzed by the 1:1 Langmuir binding model using the BIACORE® Evaluation Software to calculate the binding rate constant ka (L/mol/s) and dissociation rate constant kd (l/s), and the dissociation constant KD (mol/L) was calculated from these values. […] Regarding such interactions, KD values were calculated using the following 1:1 binding model described in BIACORE® T100 Software Handbook BR1006-48 Edition AE.

[2] = target: T2, human FcγRIIaH extracellular domain, C-terminal His-tag (human, UniProt P12318 34-217); test: as above
T2 construct: also called human FcγRIIa (type H); FcgRIIaH
T2 sequence: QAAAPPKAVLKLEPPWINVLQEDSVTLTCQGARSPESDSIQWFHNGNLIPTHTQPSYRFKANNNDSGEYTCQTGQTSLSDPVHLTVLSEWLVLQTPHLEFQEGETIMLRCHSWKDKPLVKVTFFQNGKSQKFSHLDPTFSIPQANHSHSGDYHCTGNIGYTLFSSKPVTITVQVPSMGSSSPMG
Method: as §1

[3] = target: T3, Cynomolgus monkey latent myostatin (cynomolgus monkey, UniProt Q95J86 25-266; Q95J86 267-375); test: SPR (BIACORE T200) 37C, pH 7.4, antibody captured by ProA/G
T3 construct: Latent form = complex of two propeptides and the mature dimer; also called Cyno latent myostatin
T3 sequence 1: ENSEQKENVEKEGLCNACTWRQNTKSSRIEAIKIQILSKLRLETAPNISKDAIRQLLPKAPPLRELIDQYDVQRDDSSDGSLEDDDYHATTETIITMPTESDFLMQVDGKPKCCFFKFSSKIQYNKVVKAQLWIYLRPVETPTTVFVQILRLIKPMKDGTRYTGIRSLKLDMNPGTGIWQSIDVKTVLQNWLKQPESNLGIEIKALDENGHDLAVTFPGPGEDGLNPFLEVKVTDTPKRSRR
T3 sequence 2: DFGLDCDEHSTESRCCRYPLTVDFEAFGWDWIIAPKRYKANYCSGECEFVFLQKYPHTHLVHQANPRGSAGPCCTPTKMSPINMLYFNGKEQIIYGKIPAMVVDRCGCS

[4] = target: T4, cynomolgus monkey FcγRIIa1 extracellular domain with C-terminal His-tag (cynomolgus monkey); test: SPR (BIACORE); KD of SG1 / KD of variant;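 note: relative to parent M103205H795-SG1 carrying the SG1 human heavy chain constant region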
T4 construct: also called cyno FcgRIIa1; cynoFcγRIIa1
T4 chain: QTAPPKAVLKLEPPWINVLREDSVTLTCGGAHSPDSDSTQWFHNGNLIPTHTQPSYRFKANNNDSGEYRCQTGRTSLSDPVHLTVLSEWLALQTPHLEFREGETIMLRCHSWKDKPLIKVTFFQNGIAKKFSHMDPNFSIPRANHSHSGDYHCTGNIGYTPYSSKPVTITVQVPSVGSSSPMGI

[5] = target: T5, cynomolgus monkey FcγRIIa2 extracellular domain with C-terminal His-tag (cynomolgus monkey); test: SPR (BIACORE); KD of SG1 / KD of variant;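 note: relative to parent M103205H795-SG1 carrying the SG1 human heavy chain constant region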
T5 construct: also called cyno FcgRIIa2; cynoFcγRIIa2
T5 chain: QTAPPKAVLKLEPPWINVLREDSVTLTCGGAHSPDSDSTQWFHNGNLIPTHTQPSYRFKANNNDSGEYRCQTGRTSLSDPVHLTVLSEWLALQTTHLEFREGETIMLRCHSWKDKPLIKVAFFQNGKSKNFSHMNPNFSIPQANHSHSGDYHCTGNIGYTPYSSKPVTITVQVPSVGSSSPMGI

[6] = target: T6, human FcγRIIaR extracellular domain with C-terminal His-tag (human, UniProt P12318 34-217); test: SPR (BIACORE); KD of SG1 / KD of variant;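 note: relative to parent M103205H795-SG1 carrying the SG1 human heavy chain constant region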
T6 construct: also called human FcgRIIaR; FcγRIIa (type R)
T6 chain: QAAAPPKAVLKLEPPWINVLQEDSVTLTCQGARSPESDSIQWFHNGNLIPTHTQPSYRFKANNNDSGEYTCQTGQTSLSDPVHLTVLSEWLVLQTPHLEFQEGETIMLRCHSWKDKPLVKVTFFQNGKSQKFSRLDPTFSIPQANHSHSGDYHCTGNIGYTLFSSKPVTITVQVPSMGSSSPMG

B1: MS_M103205H795-SG1/M103202L889-SK1 (antibody, human IgG1, kappa)
heavy: not shown
light: DIVMTQSPATLSLSPGERATLSCTSSQSVYHANWLSWFQQKPGQPPKLLIYWASTLAYGVPSRFSGSGSGTDFTLTISSLQPEDAATYYCAGGYGGGRYAFGQGTKVEIKRTVAAPSVFIFPPSDEQLKSGTASVVCLLNNFYPREAKVQWKVDNALQSGNSQESVTEQDSKDSTYSLSSTLTLSKADYEKHKVYACEVTHQGLSSPVTKSFNRGEC
notes: also called MS1032LO06-SG1
Kd [1]: 420 nM
Kd [2]: 930 nM
Kd [3]: 0.343 nM

B2: MS_M103205H795-SG1/M103202L889-SK1 (antibody, human IgG1, kappa)
heavy: not shown
light: DIVMTQSPATLSLSPGERATLSCTSSQSVYHANWLSWFQQKPGQPPKLLIYWASTLAYGVPSRFSGSGSGTDFTLTISSLQPEDAATYYCAGGYGGGRYAFGQGTKVEIKRTVAAPSVFIFPPSDEQLKSGTASVVCLLNNFYPREAKVQWKVDNALQSGNSQESVTEQDSKDSTYSLSSTLTLSKADYEKHKVYACEVTHQGLSSPVTKSFNRGEC
notes: Parent antibody of the Fc variants; also called MS1032LO06-SG1
KD fold (SG1 = 1) [4]: 1 fold
KD fold (SG1 = 1) [5]: 1 fold
KD fold (SG1 = 1) [6]: 1 fold
